Measured values from PMC9834408, “The SPOC domain is a phosphoserine binding module that bridges transcription machinery with co- and post-transcriptional regulators” (Nature Communications, 2023).

Tests used:
[1] = biological target: WTAP peptide (first 19 N-terminal amino acids) phosphorylated at S14 (UniProt Q15007); experiment: fluorescence polarisation; fluorescence anisotropy; 90 nM labelled peptide (Atto-488 on CTD peptides, FAM on NCoR and FMR1 peptides) titrated with increasing concentrations of SPOC domain; 20 °C; 25 mM Tris-Cl pH 7.4, 25 mM NaCl, 1 mM DTT; three independent dilution series
2×S5P CTD diheptapeptide = experiment: as above

Chain of SHARP SPOC (3496–3664 aa) (Q96T58 3496-3664): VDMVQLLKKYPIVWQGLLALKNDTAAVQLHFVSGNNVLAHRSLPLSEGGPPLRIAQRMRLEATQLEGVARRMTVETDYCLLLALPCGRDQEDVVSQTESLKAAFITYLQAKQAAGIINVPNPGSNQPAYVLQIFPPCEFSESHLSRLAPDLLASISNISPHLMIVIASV

Kd [1] [µM] | Kd (2×S5P CTD diheptapeptide) [µM] | Substance
21.5 |  | RBM15 SPOC (775–960 aa) (from UniProt Q96T37 775-960) (domain or fragment)
 | 20.6 | SHARP SPOC (3496–3664 aa) (from UniProt Q96T58 3496-3664) (domain or fragment)
